Measured values: article PMC10952133, “Phytocystatin 6 is a context‐dependent, tight‐binding inhibitor of Arabidopsis thaliana legumain isoform β” (The Plant Journal, 2023)
Read-outs that look alike come from different tables or passages of the source.

Assays:
[1] = target: Arabidopsis thaliana legumain isoform β, activated (AtLEGβ) (Arabidopsis thaliana) (UniProt Q39044); assay: enzyme inhibition kinetics (Ki, Morrison equation); turnover of 50 μM Z-Ala-Ala-Asn-AMC by 50 nM legumain, 25°C, 20 mM citric acid pH 5.5, 100 mM NaCl, 0.02% Tween 20, 2 mM DTT; inhibitor in 1:2 serial dilutions from 15-fold the enzyme concentration, quadruplicates
[2] = target: Arabidopsis thaliana legumain isoform β, activated (AtLEGβ) (Arabidopsis thaliana) (UniProt Q39044)
[3] = target: Arabidopsis thaliana legumain isoform γ, activated (AtLEGγ) (Arabidopsis thaliana) (UniProt Q39119); assay: enzyme inhibition kinetics (Ki, Morrison equation); turnover of 50 μM Z-Ala-Ala-Asn-AMC by 50 nM legumain, 25°C, 20 mM citric acid pH 5.5, 100 mM NaCl, 0.02% Tween 20, 2 mM DTT; inhibitor in 1:2 serial dilutions from 15-fold the enzyme concentration, quadruplicates
[4] = target: human legumain, activated (hLEG) (human) (UniProt Q99538); assay: as above
[5] = target: T1, Papain from Carica papaya (Carica papaya, UniProt P00784 134-345); assay: enzyme inhibition kinetics (Ki, Morrison equation); turnover of 50 μM Z-Phe-Arg-AMC by 50 nM papain, 25°C, 20 mM MES pH 6.0 (legend of Figure 3: pH 6.5), 50 mM NaCl, 0.02% Tween 20, 2 mM DTT; inhibitor in 1:2 serial dilutions from 15-fold the enzyme concentration, quadruplicates
T1 construct: papain of Carica papaya, used as a model of the papain-like cysteine proteases; source: bought: Merck
T1 sequence (looked up): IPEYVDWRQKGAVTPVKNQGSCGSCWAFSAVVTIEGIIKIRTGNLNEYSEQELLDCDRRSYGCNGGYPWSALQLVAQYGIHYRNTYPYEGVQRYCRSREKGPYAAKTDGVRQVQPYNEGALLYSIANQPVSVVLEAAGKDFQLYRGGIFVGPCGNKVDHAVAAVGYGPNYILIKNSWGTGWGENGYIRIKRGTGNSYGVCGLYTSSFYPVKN

Chain of Arabidopsis thaliana legumain isoform β, activated (AtLEGβ) (Arabidopsis thaliana) (Q39044 22-486): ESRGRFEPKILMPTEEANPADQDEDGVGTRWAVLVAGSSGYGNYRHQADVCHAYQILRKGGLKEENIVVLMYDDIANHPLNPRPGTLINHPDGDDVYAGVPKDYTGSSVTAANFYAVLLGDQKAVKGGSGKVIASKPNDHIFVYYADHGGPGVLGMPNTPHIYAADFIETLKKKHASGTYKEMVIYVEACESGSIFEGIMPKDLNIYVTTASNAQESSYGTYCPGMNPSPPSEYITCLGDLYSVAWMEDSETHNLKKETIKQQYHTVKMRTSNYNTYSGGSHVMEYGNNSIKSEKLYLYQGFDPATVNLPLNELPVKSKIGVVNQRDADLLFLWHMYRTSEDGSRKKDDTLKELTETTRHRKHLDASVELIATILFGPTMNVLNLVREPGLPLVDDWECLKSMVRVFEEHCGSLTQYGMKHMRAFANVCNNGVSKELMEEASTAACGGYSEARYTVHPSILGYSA
Chain of human legumain, activated (hLEG) (human) (Q99538 18-323): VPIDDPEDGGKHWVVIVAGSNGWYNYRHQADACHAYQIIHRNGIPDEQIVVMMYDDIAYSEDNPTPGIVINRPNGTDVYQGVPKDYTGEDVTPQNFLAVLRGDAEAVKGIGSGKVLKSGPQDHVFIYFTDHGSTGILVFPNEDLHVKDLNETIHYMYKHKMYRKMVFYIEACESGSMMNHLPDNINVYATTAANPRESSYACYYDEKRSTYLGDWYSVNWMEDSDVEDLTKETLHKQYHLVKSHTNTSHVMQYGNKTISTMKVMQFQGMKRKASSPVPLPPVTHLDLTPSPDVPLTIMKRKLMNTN
Chain of Arabidopsis thaliana legumain isoform γ, activated (AtLEGγ) (Arabidopsis thaliana) (Q39119 30-494): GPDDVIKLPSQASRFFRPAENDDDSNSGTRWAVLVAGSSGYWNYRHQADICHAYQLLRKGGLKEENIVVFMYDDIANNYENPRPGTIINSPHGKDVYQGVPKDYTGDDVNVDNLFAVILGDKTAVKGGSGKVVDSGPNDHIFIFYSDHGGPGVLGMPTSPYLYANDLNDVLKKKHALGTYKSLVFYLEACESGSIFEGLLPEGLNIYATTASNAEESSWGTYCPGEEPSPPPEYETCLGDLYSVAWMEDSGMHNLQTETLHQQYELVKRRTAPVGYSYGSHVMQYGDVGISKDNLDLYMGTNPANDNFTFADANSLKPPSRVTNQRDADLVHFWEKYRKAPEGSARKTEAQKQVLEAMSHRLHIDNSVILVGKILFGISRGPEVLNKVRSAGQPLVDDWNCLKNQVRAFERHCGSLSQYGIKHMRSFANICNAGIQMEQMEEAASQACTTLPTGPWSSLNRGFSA

A Ki [1] of 3.98 nM was found for AtCYT6-CTD-K208A (domain or fragment) in this work.

A Ki [1] of 3.36 nM was found for AtCYT6-CTD-R205A (domain or fragment) in this work.

An inflection temperature T i of AtLEGβ by nanoDSF at pH 6.5, equimolar AtCYT6-CTD (AtLEGβ alone 49.6°C) [2] of 57 °C, a Ki [1] of 0.61 nM and a Ki [3] of 0.86 nM were found for “C-terminal domain of AtCYT6 (AtCYT6-CTD, E142-D235) (domain or fragment)” in this work. For the same molecule, the Ki [4] was 61.4 nM.

A Ki [1] of 0.68 nM was found for “C-terminal domain of AtCYT6 carrying the interdomain linker (AtCYT6-CTDlong, A128-D235) (domain or fragment)” in this work.

An inflection temperature T i of AtLEGβ by nanoDSF at pH 6.5, equimolar AtCYT6-FL (AtLEGβ alone 49.6°C) [2] of 58.9 °C, a Ki [1] of 0.29 nM and a Ki [3] of 1.21 nM were found for “full-length AtCYT6 lacking the N-terminal signal peptide (AtCYT6-FL, A35-D235) (natural protein)” in this work. The Ki [4] was 106 nM and the Ki [5] was 27.8 nM.

B1: N-terminal domain of AtCYT6 (AtCYT6-NTD, A35-D127) (domain or fragment, Arabidopsis thaliana, UniProt Q8H0X6-1 35-127, looked up)
chain: ALVGGVGDVPANQNSGEVESLARFAVDEHNKKENALLEFARVVKAKEQVVAGTLHHLTLEILEAGQKKLYEAKVWVKPWLNFKELQEFKPASD
notes: Arabidopsis thaliana cystatin 6, N-terminal cystatin domain, residues A35-D127; Cloned into pET-28; source: E. coli BL21(DE3), purified (Ni-NTA, SEC)
A Ki ([5]; both partners purified) of 6.3 ± 1.43 nM was found for B1 in this work.
